These results are taken from publication PMC7225089, “A long lost key opens an ancient lock: Drosophila Myb causes a synthetic multivulval phenotype in nematodes” (Biology Open, 2020).

Assay [1] addresses Drosophila LIN9-LIN52 heterodimeric Myb-binding domain complex (D. melanogaster). The experiment in a line: ITC; Myb fragment (~500 μM) in the syringe injected into LIN9-LIN52 heterodimer (~25–50 μM) at 25°C; 20 mM Tris, 150 mM NaCl, 1 mM beta mercaptoethanol, pH 8.0; MicroCal VP-ITC; triplicate. A general note: ITC needs no label: the signal is the heat of the interaction.
The target of assay [2] is T1, C. elegans LIN9-LIN52 heterodimeric Myb-binding domain complex (C. elegans, UniProt P30630 442-559; Q10120 75-139).
T1 construct: also called nematode LIN9-LIN52; ceLIN9; source: E. coli, co-expressed, purified (glutathione-sepharose, anion exchange, TEV cleavage, Superdex 200); not shown: GST, N-terminal, cleaved
T1 sequence (looked up) 1: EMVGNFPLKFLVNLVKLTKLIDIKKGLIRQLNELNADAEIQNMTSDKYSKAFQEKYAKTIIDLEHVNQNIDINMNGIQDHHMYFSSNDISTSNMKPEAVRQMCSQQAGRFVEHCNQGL
T1 sequence (looked up) 2: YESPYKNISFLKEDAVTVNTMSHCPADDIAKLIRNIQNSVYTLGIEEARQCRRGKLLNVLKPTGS
The description is as above. To be noted: both partners purified.

Positions count from the first letter of the chain named. Names and notes keep the numbering of the source.

B1: Drosophila melanogaster Myb MuvB-binding domain (residues 602-632), wild type (domain or fragment, D. melanogaster, UniProt P04197 602-632, looked up)
chain: VIDPKWARVACGKSRDQMFMEEQAYACLKNL
notes: Expressed from the pGEX vector and 'purified as described for the LIN9-LIN52 complex'; also called Drosophila Myb; dmMyb; source: E. coli, purified (glutathione-sepharose, anion exchange, TEV cleavage, Superdex 200); not shown: GST, N-terminal, cleaved
Broadly, the Kd is the constant that tells how readily two partners part at equilibrium. For the molecule B1, the Kd was 3 µM in assay [1] and 7 µM in assay [2].

B2: Drosophila melanogaster Myb MuvB-binding domain (residues 602-632), K606A/W607A double-substitution mutant (domain or fragment, D. melanogaster, UniProt P04197 602-632, looked up)
chain: B1 chain with K5A, W6A
notes: Expressed from the pGEX vector and 'purified as described for the LIN9-LIN52 complex'; also called KW; source: E. coli, purified (glutathione-sepharose, anion exchange, TEV cleavage, Superdex 200); not shown: GST, N-terminal, cleaved
For the molecule B2, the Kd in assay [1] stood at 41 µM; in assay [2] it was 70 µM.
